Target: His-EutM-SpyCatcher (N-His-GS-EutM-GS-SpyCatcher)

B1: SpyTag-AmDH (N-His-thrombin-SpyTag-GS-Ch1-AmDH) (protein)
chain: MGSSHHHHHHSSGLVPRGSHMMGSSGAHIVMVDAYKPTKGSGGSGVDMSLVEKTSIIKDFTLFEKMSEHEQVVFCNDPATGLRAIIAIHDTTLGPALGGCRMQPYNSVEEALEDALRLSKGMTYSCAASDVDFGGGKAVIIGDPQKDKSPELFRAFGQFVDSLGGRFYTGTDMGTNMEDFIHAMKETNCIVGVPEAYGSSGNPSPATAYGVYRGMKAAAKEAFGSDSLEGKVVAVQGVGNVAYHLCRHLHEEGAKLIVTDINKEAVARAVEEFGAKAVDPNDIYGVECDIFAPCALGGIINDQTIPQLKAKVIAGSALNQLKEPRHGDMIHEMGIVYAPDYVINAGGCINVADELYGYNRERAMKKIEQIYDNIEKVFAIAKRDNIPTYVAADRMAEERIETMRKARSQFLQNGHHILSRRRAR
For B1, which “relative activity after 48 hours, 1:6 SpyTag-AmDH:EutM-SpyCatcher” value is on record?
Its value is “approximately 79% relative activity”.
